Reference: patent publication US20020197690

Target: T1, 35S-labeled in vitro translated GID
T1 chain: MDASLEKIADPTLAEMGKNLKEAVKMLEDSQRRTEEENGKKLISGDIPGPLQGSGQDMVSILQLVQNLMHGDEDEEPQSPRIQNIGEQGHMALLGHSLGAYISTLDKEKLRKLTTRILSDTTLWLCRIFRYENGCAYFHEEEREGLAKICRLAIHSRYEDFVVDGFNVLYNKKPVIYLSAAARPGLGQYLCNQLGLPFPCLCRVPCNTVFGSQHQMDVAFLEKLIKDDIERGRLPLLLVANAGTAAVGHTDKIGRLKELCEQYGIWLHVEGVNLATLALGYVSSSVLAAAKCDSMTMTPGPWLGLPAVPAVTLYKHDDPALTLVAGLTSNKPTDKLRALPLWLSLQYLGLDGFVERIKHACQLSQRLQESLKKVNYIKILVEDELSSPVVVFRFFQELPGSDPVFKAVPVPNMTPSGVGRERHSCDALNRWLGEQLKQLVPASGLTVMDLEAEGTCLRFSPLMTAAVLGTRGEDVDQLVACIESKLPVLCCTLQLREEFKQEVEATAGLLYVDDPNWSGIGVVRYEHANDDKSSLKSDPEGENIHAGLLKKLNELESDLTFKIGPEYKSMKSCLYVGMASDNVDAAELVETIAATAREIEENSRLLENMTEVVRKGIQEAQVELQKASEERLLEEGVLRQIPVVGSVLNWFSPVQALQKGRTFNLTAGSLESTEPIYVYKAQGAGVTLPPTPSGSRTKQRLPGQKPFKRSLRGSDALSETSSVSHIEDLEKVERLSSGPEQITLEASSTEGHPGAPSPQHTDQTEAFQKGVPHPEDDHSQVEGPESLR

B1: recombinant caspase-3 (Pharmingen) (protein)
chain: SGISLDNSYKMDYPEMGLCIIINNKNFHKSTGMTSRSGTDVDAANLRETFRNLKYEVRNKNDLTREEIVELMRDVSKEDHSKRSSFVCVLLSHGEEGIIFGTNGPVDLKKITNFFRGDRCRSLTGKPKLFIIQACRGTELDCGIETDSGVDDDMACHKIPVEADFLYAYSTAPGYYSWRNSKDGSWFIQSLCAMLKQYADKLEFMHILTRVNRKVATEFESFSFDATFHAKKQIPCIVSMLTKELYFYH
With B1 as the protein, how does the “in vitro caspase-3 assay: cleavage of 35S-labeled in vitro translated GID (SDS-PAGE, autoradiography)” value read?
Its value is “Increasing amounts of caspase-3 incubated with GID resulted in greater amounts of a cleavage product of approximately 58 kDa, which was not observed in the presence of incubation with buffer alone”.
